Measured values reported in IntAct's records for PubMed 23523425.

B1: Polycomb group RING finger protein 2 (Homo sapiens), P35227 (parent)
chain: MHRTTRIKITELNPHLMCALCGGYFIDATTIVECLHSFCKTCIVRYLETNKYCPMCDVQVHKTRPLLSIRSDKTLQDIVYKLVPGLFKDEMKRRRDFYAAYPLTEVPNGSNEDRGEVLEQEKGALSDDEIVSLSIEFYEGARDRDEKKGPLENGDGDKEKTGVRFLRCPAAMTVMHLAKFLRNKMDVPSKYKVEVLYEDEPLKEYYTLMDIAYIYPWRRNGPLPLKYRVQPACKRLTLATVPTPSEGTNTSGASECESVSDKAPSPATLPATSSSLPSPATPSHGSPSSHGPPATHPTSPTPPSTASGATTAANGGSLNCLQTPSSTSRGRKMTVNGAPVPPLT
partner: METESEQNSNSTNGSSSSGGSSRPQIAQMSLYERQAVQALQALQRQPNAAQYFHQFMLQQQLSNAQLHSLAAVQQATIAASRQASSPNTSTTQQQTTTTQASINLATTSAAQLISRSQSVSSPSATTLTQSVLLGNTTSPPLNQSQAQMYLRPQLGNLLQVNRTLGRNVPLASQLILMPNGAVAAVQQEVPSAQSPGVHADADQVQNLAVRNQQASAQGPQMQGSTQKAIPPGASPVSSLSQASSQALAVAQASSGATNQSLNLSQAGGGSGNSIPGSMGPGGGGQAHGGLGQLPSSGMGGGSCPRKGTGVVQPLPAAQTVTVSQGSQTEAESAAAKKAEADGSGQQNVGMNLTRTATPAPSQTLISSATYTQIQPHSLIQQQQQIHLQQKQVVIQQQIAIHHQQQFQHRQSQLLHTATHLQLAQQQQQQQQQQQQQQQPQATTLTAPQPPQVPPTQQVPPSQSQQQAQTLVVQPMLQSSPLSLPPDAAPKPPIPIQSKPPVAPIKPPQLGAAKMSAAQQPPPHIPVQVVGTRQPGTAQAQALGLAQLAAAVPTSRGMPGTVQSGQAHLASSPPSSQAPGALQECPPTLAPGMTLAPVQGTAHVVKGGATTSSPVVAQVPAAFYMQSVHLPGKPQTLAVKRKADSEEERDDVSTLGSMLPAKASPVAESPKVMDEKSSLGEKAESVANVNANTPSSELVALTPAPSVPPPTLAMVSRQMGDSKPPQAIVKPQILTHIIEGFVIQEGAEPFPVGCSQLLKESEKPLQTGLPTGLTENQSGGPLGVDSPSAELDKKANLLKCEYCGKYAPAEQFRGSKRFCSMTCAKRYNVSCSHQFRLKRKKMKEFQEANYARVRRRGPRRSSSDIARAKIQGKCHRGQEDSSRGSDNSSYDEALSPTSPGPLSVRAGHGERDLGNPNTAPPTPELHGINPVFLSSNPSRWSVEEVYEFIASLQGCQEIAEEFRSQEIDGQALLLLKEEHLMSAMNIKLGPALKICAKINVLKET
B2: Polycomb complex protein BMI-1 (Homo sapiens), P35226 (parent)
chain: MHRTTRIKITELNPHLMCVLCGGYFIDATTIIECLHSFCKTCIVRYLETSKYCPICDVQVHKTRPLLNIRSDKTLQDIVYKLVPGLFKNEMKRRRDFYAAHPSADAANGSNEDRGEVADEDKRIITDDEIISLSIEFFDQNRLDRKVNKDKEKSKEEVNDKRYLRCPAAMTVMHLRKFLRSKMDIPNTFQIDVMYEEEPLKDYYTLMDIAYIYTWRRNGPLPLKYRVRPTCKRMKISHQRDGLTNAGELESDSGSDKANSPAGGIPSTSSCLPSPSTPVQSPHPQFPHISSTMNGTSNSPSGNHQSSFANRPRKSSVNGSSATSSG
partner: B1 partner

Variants of: B1
Settings: with phc1_human PHC1, P78364

Effect of a mutation on the interaction, decreasing interaction strength:
MHRTTRIKITELNPHLMCALCGGYFIDATTIVECLHSFCKTCIVRYLETNKYCPMCDVQVHKTRPLLSIRSDKTLQDIVYKLVPGLFKDEMKRRRDFYAAYPLTEVPNGSNEDRGEVLEQEKGALSDDEIVSLSIEFYEGARDRDEKKGPLENGDGDKEKTGVRALRCPAAMTVMHLAKFLRNKMDVPSKYKVEVLYEDEPLKEYYTLMDIAYIYPWRRNGPLPLKYRVQPACKRLTLATVPTPSEGTNTSGASECESVSDKAPSPATLPATSSSLPSPATPSHGSPSSHGPPATHPTSPTPPSTASGATTAANGGSLNCLQTPSSTSRGRKMTVNGAPVPPLT [F165A]
MHRTTRIKITELNPHLMCALCGGYFIDATTIVECLHSFCKTCIVRYLETNKYCPMCDVQVHKTRPLLSIRSDKTLQDIVYKLVPGLFKDEMKRRRDFYAAYPLTEVPNGSNEDRGEVLEQEKGALSDDEIVSLSIEFYEGARDRDEKKGPLENGDGDKEKTGVRFLRCPAAMTVMHLAKDLRNKMDVPSKYKVEVLYEDEPLKEYYTLMDIAYIYPWRRNGPLPLKYRVQPACKRLTLATVPTPSEGTNTSGASECESVSDKAPSPATLPATSSSLPSPATPSHGSPSSHGPPATHPTSPTPPSTASGATTAANGGSLNCLQTPSSTSRGRKMTVNGAPVPPLT [F180D]
MHRTTRIKITELNPHLMCALCGGYFIDATTIVECLHSFCKTCIVRYLETNKYCPMCDVQVHKTRPLLSIRSDKTLQDIVYKLVPGLFKDEMKRRRDFYAAYPLTEVPNGSNEDRGEVLEQEKGALSDDEIVSLSIEFYEGARDRDEKKGPLENGDGDKEKTGVAFLRCPAAMTVMHLAKFLRNKMDVPSKYKVEVLYEDEPLKEYYTLMDIAYIYPWRRNGPLPLKYRVQPACKRLTLATVPTPSEGTNTSGASECESVSDKAPSPATLPATSSSLPSPATPSHGSPSSHGPPATHPTSPTPPSTASGATTAANGGSLNCLQTPSSTSRGRKMTVNGAPVPPLT [R164A]

Variants of: B2
Settings: with phc1_human PHC1, P78364

Effect of a mutation on the interaction, decreasing interaction strength:
MHRTTRIKITELNPHLMCVLCGGYFIDATTIIECLHSFCKTCIVRYLETSKYCPICDVQVHKTRPLLNIRSDKTLQDIVYKLVPGLFKNEMKRRRDFYAAHPSADAANGSNEDRGEVADEDKRIITDDEIISLSIEFFDQNRLDRKVNKDKEKSKEEVNDKRYLACPAAMTVMHLRKFLRSKMDIPNTFQIDVMYEEEPLKDYYTLMDIAYIYTWRRNGPLPLKYRVRPTCKRMKISHQRDGLTNAGELESDSGSDKANSPAGGIPSTSSCLPSPSTPVQSPHPQFPHISSTMNGTSNSPSGNHQSSFANRPRKSSVNGSSATSSG [R165A]
MHRTTRIKITELNPHLMCVLCGGYFIDATTIIECLHSFCKTCIVRYLETSKYCPICDVQVHKTRPLLNIRSDKTLQDIVYKLVPGLFKNEMKRRRDFYAAHPSADAANGSNEDRGEVADEDKRIITDDEIISLSIEFFDQNRLDRKVNKDKEKSKEEVNDKRYLRCPAAMTVMHLRKDLRSKMDIPNTFQIDVMYEEEPLKDYYTLMDIAYIYTWRRNGPLPLKYRVRPTCKRMKISHQRDGLTNAGELESDSGSDKANSPAGGIPSTSSCLPSPSTPVQSPHPQFPHISSTMNGTSNSPSGNHQSSFANRPRKSSVNGSSATSSG [F178D]
MHRTTRIKITELNPHLMCVLCGGYFIDATTIIECLHSFCKTCIVRYLETSKYCPICDVQVHKTRPLLNIRSDKTLQDIVYKLVPGLFKNEMKRRRDFYAAHPSADAANGSNEDRGEVADEDKRIITDDEIISLSIEFFDQNRLDRKVNKDKEKSKEEVNDKRALRCPAAMTVMHLRKFLRSKMDIPNTFQIDVMYEEEPLKDYYTLMDIAYIYTWRRNGPLPLKYRVRPTCKRMKISHQRDGLTNAGELESDSGSDKANSPAGGIPSTSSCLPSPSTPVQSPHPQFPHISSTMNGTSNSPSGNHQSSFANRPRKSSVNGSSATSSG [Y163A]
